From US20210040232A1

B1: H1H19313P (antibody, human IgG1, V domains shown)
VH: QITLKESGPTLVKPTQTLTLTCTFSGFSLSTSGVGVGWIRQPPGVALEWLALIYWNDDKRFSPSLKSRLTITKDTSKNQVVLTMTNMDPVDTATYYCAHRRLGLYYFDYWGQGTLVTVSS
VL: DIQLTQSPSFLSASVGDRVTITCWASQGISSYLAWYQQKPGKAPKLLIYAASTLQSGVPSRFSGSGSGTEFTLTISSLQPEDFATYYCQQVHIYPFTFGPGTKVDIK
B2: H1H19303P (antibody, human IgG1, kappa, V domains shown)
VH: EVQLVESGGGLVQPGGSLRLSCAASGFTFSNYEMSWVRQAPGKGLEWVSSIRTSGTTKYYADSMKGRFTISRDNAKNSLYLQMNSLRAEDTAVYYCAGGGTFLHYWGQGTLVTVSS
VL: DIQMTQSPSSVSASVGDRVTITCRASQGIASYLAWYQQKPGKAPKLLIYAASSLQTGVPSRFSGSGYGTDFTLTISSLQPEDFATYYCQQAKSFPMYTFGQGTKLEIKR
B3: H1H19273P (antibody, human IgG1, V domains shown)
VH: QITLKESGPTLVKPTQTLTLTCTFSGFSLSTSGVGVGWIRQSPGRALEWLALIYWNDHERYSPSLKSRLTITKDTSKNLVVLAMANMDPVDTATYFCAHRNIEYRRSYFFDYWGQGTLVTVSS
VL: DIQMTQSPSSVSASVRDRVTVTCRASQDINNWLAWYQQKPGKAPKLLIYAASSLQSGVPSRFSGSGSGTDFTLTISSLQPEDFATYYCQQANTFPFTFGPGTKVDIK
B4: H1H19264P (antibody, human IgG1, V domains shown)
VH: QVQLVQSGAEVKKPGASVKVSCKASDYTFTSYGISWVRQAPGQGLEWMGWISVYNGNINYAQKFKGRVTMTTDTSTSTAYMELRSLRSDDMAVYYCARVTQFGMDVWGQGTTVTVSS
VL: DIQMTQSPSSLSASVGDRVTITCRASQSISSNLNWYQQNPGKAPKLLIYTTSSLQGGVPSRFSGSGSGTDFTLTISSLQPEDFATYYCQQSFRTPFTFGPGTKVDIK

Assays:
[1] = biological target: mf CTLA-4 extracellular domain (aa 1-161) fused to the trans-membrane and cytoplasmic domain of hCD300a (aa 181-299), on Jurkat/NFAT-Luc cells (Macaca fascicularis; human) (UniProt G7PL88); assay: cell-based or functional assay
Sequence of mf CTLA-4 extracellular domain (aa 1-161) fused to the trans-membrane and cytoplasmic domain of hCD300a (aa 181-299), on Jurkat/NFAT-Luc cells (Macaca fascicularis; human) (Q9UGN4 other isoform, or with tags, fused parts or gaps, form in doubt): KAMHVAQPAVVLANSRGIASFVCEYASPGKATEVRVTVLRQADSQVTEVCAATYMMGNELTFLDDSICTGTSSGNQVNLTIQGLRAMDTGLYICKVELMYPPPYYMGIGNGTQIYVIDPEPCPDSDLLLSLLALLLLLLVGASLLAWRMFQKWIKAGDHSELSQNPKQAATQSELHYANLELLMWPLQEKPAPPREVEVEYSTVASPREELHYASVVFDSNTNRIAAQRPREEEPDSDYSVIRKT

[2] = biological target: mf CTLA-4 extracellular domain (aa 1-161) fused to the trans-membrane and cytoplasmic domain of hCD300a (aa 181-299), on Jurkat/NFAT-Luc cells (Macaca fascicularis; human) (UniProt G7PL88); assay: ECL cell binding, Jurkat/NFAT-Luc/mfCTLA-4-hCD300a cells
[3] = biological target: human CTLA-4 (amino acids M1-N223) on stably transfected VI-fibroblast cells (human) (UniProt P16410); assay: ECL cell binding, VI-fibroblast/hCTLA-4 cells
Sequence of human CTLA-4 (amino acids M1-N223) on stably transfected VI-fibroblast cells (human) (P16410 36-223 limits assumed): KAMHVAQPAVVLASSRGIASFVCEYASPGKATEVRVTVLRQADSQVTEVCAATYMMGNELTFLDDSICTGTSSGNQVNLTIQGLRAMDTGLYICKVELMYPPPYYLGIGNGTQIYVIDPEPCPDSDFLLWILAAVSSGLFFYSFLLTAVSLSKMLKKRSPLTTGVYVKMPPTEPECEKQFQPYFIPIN

Row | Binder | EC50, T-cell/APC IL-2 release assay, APC HEK293/hCD20/hCD86 [1] [nM] | EC50, T-cell/APC NFAT-luciferase assay, +Fc Block [1] [nM] | EC50, T-cell/APC NFAT-luciferase assay, -Fc Block [1] [nM] | Fold induction of IL-2 at 100 nM, APC HEK293/hCD20/hCD86 [1] [fold] | EC50 [2] [nM] | ratio of RLU signal to parental VI-fibroblast at 0.4 nM Ab [3]
1 | B1 | 21.9 | 1.84 | 1.34 | 6.1 | 0.14 | 
2 | B2 | 40.9 | 1.77 | 1.28 | 4.4 | 0.11 | 
3 | B3 | 11.4 | 1.83 | 3.05 | 6.5 | 0.22 | 
4 | B4 |  |  |  |  |  | 1
